These results are taken from the supplement of paper PMC7877785.

This data set can be described thus: self-splicing fitness, log relative to wild type (ln ratio); higher = more splicing; Tetrahymena group I intron in knt gene, E. coli kanamycin selection, DiMSum; sequences stand for … in CUCUCU…GGAGGGAAAAGUUAUCAGGCAUGCACCUGGUAGCUAGUCUUUAAACCAAUAGAUUGCAUCGGUUUAAAAGGCAAGACCGUCAAAUUGCGGGAAAGGGGUCAACAGCCGUUCAGUACCAAGUCUCAGGGGAAACUUUGAGAUGGCCUUGCAAAGGGUAUGGUAAUAAGCUGACGGACAUGGUCCUAACCACGCAGCCAAGUCCUAAGUCAACAGAUCUUCUGUUGAUAUGGAUGCAGUUCACAGACUAAAUGUCGGUCGGGGAAGAUGUAUUCUUCUCAUAAGAUAUAGUCGGACCUCUCCUUAAUGGGAGCUAGCGGAUGAAGUGAUGCAACACUGGAGCCGCUGGGAACUAAUUUGUAUGCGAAAGUAUAUUGAUUAGUUUUGGAGUACUCGUGGUCG
The essentials: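 DiMSum derived fitness as the error-weighted combination of fold changes across replicates, kanamycin versus no kanamycin, normalised to wild type. E. coli BL21(DE3) held the library, which randomised all eight P1ex-region intron nucleotides within the knt kanamycin-resistance gene on pET-22b(+). Six replicate transformations grew overnight at 37°C or 30°C on LB agar with or without 25 μg/mL kanamycin, also containing 100 μg/mL carbenicillin, 50 μM IPTG and 0.2% rhamnose, and pooled colonies were amplicon-sequenced on an Illumina HiSeq 2500.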

± gives the uncertainty stated by the source.

With AGACAGCAAUAUUACGCCUA, the “self-splicing fitness (ln)” value reads like this: (30 °C) -1.46 ± 0.16; (37 °C) -0.402 ± 0.17.
On to AGACAGCAAUAUUACGCCUU, for which the “self-splicing fitness (ln)” value is, setting by setting: (30 °C) -2.75 ± 0.097; (37 °C) -0.727 ± 0.086.
AGACAGCAAUAUUACGCGAC: the “self-splicing fitness (ln)” value by setting is: (30 °C) -3.41 ± 0.44; (37 °C) -1.99 ± 0.21.
As for AGACAGCAAUAUUACGCGUC, the “self-splicing fitness (ln)” value by setting is: (30 °C) -3.19 ± 0.29; (37 °C) -2.08 ± 0.24.
For AGACAGCAAUAUUACGCUCA the same measures were -0.572 ± 0.096 and 0.589 ± 0.12.
Taken in the same sequence, the figures for AGACAGCAAUAUUACGCUGU were -4.06 ± 0.29 and -2.54 ± 0.21.
For AGACAGCAAUAUUACGGAUG, the “self-splicing fitness (ln)” value by setting is: (30 °C) -2.81 ± 0.11; (37 °C) -2.38 ± 0.17.
Turning to AGACAGCAAUAUUACGGGAC, the “self-splicing fitness (ln)” value by setting is: (30 °C) -2.87 ± 0.18; (37 °C) -2.54 ± 0.23.
In the case of AGACAGCAAUAUUACGGGGA, the “self-splicing fitness (ln)” value was -3.11 ± 0.17 (30 °C) and -1.82 ± 0.12 (37 °C).
Taken in the same sequence, the figures for AGACAGCAAUAUUACGGGUA were -2.49 ± 0.1 and -2.1 ± 0.095.
For the sequence AGACAGCAAUAUUACGGUCA, the “self-splicing fitness (ln)” value is -0.457 ± 0.063 (30 °C) and -0.0714 ± 0.074 (37 °C).
For AGACAGCAAUAUUACGUACC, the “self-splicing fitness (ln)” value by setting is: (30 °C) -0.256 ± 0.11; (37 °C) -0.253 ± 0.14.
Taken in the same sequence, the figures for AGACAGCAAUAUUACGUCCA were -0.173 ± 0.092 and -0.591 ± 0.14.
For AGACAGCAAUAUUACGUCCU the same measures were -0.567 ± 0.052 and -0.257 ± 0.066.
For AGACAGCAAUAUUACGUCGU the same measures were -2.21 ± 0.091 and -1.85 ± 0.12.
Turning to AGACAGCAAUAUUACGUGAC, the “self-splicing fitness (ln)” value (30 °C) is -2.89 ± 0.15 and the “self-splicing fitness (ln)” value (37 °C) was -1.42 ± 0.13.
Regarding AGAGAGCAAUAUUACGAAUC, the “self-splicing fitness (ln)” value by setting is: (30 °C) -3.68 ± 0.47; (37 °C) -2.06 ± 0.37.
For AGAGAGCAAUAUUACGACCU, the “self-splicing fitness (ln)” value is -1.59 ± 0.18 (30 °C) and -0.651 ± 0.26 (37 °C).
Regarding AGAGAGCAAUAUUACGACUC, the “self-splicing fitness (ln)” value (30 °C) is -1.4 ± 0.12 and the “self-splicing fitness (ln)” value (37 °C) is -0.408 ± 0.15.
With AGAGAGCAAUAUUACGACUG, the “self-splicing fitness (ln)” value (30 °C) was -2.3 ± 0.2.
Consider AGAGAGCAAUAUUACGAUCC, for which the “self-splicing fitness (ln)” value by setting is: (30 °C) -2.71 ± 0.24; (37 °C) -1.5 ± 0.32.
For the sequence AGAGAGCAAUAUUACGAUGC, for the setting “30 °C”, the “self-splicing fitness (ln)” value was -3.3 ± 0.48.
Consider AGAGAGCAAUAUUACGAUUU, for which the “self-splicing fitness (ln)” value (30 °C) was -1.52 ± 0.11 and the “self-splicing fitness (ln)” value (37 °C) was -0.748 ± 0.11.
In the case of AGAGAGCAAUAUUACGCAGA, where the note is “30 °C”, the “self-splicing fitness (ln)” value is -1.67 ± 0.22.
AGAGAGCAAUAUUACGCGAC: the “self-splicing fitness (ln)” value reads like this: (30 °C) -2.11 ± 0.34; (37 °C) -1.87 ± 0.39.
With AGAGAGCAAUAUUACGCGGU, the “self-splicing fitness (ln)” value (30 °C) was -3.79 ± 0.43 and the “self-splicing fitness (ln)” value (37 °C) was -2.17 ± 0.46.
Taken in the same sequence, the figures for AGAGAGCAAUAUUACGCUUA were -2.39 ± 0.25 and -1.32 ± 0.23.
For AGAGAGCAAUAUUACGGAUA the same measures were -2.48 ± 0.21 and -1.24 ± 0.21.
On to AGAGAGCAAUAUUACGGAUG, for which, under “37 °C”, the “self-splicing fitness (ln)” value was -1.4 ± 0.36.
For the sequence AGAGAGCAAUAUUACGGCAU, the “self-splicing fitness (ln)” value by setting is: (30 °C) -2.39 ± 0.18; (37 °C) -1.36 ± 0.18.
AGAGAGCAAUAUUACGGCGC: the “self-splicing fitness (ln)” value (37 °C) is -2.13 ± 0.35.
With AGAGAGCAAUAUUACGGGGG, the “self-splicing fitness (ln)” value runs as follows: (30 °C) -2.78 ± 0.34; (37 °C) -1.7 ± 0.36.
AGAGAGCAAUAUUACGGUGG: the “self-splicing fitness (ln)” value reads like this: (30 °C) -2.76 ± 0.23; (37 °C) -3.44 ± 0.37.
On to AGAGAGCAAUAUUACGUAUA, for which the “self-splicing fitness (ln)” value (37 °C) was -1.02 ± 0.32.
For AGAGAGCAAUAUUACGUCGG, the “self-splicing fitness (ln)” value reads like this: (30 °C) -2.92 ± 0.25; (37 °C) -2.2 ± 0.26.
